The target in assay [1] is Human neonatal receptor (FcRn) (human) (UniProt P55899). The assay is described as follows: SPR (BIACore), low density FcRn biosensor chip, three runs of five dilutions. A general note: In SPR one partner is held on a chip, and binding of the other changes the refractive index at the surface.
Assay [2] deals with TROP-2 (EGP-1), human, on tumor cell lines (human) (UniProt P09758). The assay is described as follows: cell binding on TROP-2-positive PC-3 human prostate carcinoma cells, three separate occasions.
Sequence of TROP-2 (EGP-1), human, on tumor cell lines (human) (P09758 27-323): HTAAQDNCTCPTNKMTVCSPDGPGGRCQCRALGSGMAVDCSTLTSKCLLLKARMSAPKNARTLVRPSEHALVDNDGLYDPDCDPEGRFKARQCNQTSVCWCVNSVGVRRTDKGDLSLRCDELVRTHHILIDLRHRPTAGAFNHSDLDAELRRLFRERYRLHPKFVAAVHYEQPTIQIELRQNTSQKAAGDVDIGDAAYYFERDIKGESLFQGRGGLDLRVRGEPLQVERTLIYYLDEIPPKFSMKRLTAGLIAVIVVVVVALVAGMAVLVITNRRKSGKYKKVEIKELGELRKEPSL
Assay [3] has as its target CD74 (invariant chain, Ii), human, on tumor cell lines (human) (UniProt P04233). The assay is described as follows: flow cytometry, surface only, Raji cells. For orientation: A flow cytometer gives signals particle by particle.
Assay [4] shares this target. The experiment in a line: flow cytometry, surface only, A-375 cells.
Assay [5] shares this target. The experiment in a line: flow cytometry, surface only, HuH-7 cells.
Assay [6] shares this target. The assay is described as follows: flow cytometry, surface only, Hep-G2 cells.
The target is the same in assay [7]. The assay is described as follows: flow cytometry, surface only, Hs746T cells.
Assay [8] shares this target. The experiment in a line: flow cytometry, surface only, Capan-1 cells.
For assay [9] the target is unchanged. The experiment in a line: flow cytometry, surface only, NCI-N87 cells.
The target is the same in assay [10]. The assay is described as follows: cell binding to antigen-positive cells (cell line not given).
Assay [11] has the same target. The assay is described as follows: flow cytometry, surface and cytoplasmic (permeabilized), Raji cells.
For assay [12] the target is unchanged. The experiment in a line: flow cytometry, surface and cytoplasmic (permeabilized), A-375 cells.
Assay [13] has the same target. The experiment in a line: flow cytometry, surface and cytoplasmic (permeabilized), HuH-7 cells.
The target is the same in assay [14]. The assay is described as follows: flow cytometry, surface and cytoplasmic (permeabilized), Hep-G2 cells.
For assay [15] the target is unchanged. The assay is described as follows: flow cytometry, surface and cytoplasmic (permeabilized), Hs746T cells.
The target is the same in assay [16]. The experiment in a line: flow cytometry, surface and cytoplasmic (permeabilized), Capan-1 cells.
Assay [17] has the same target. The assay is described as follows: flow cytometry, surface and cytoplasmic (permeabilized), NCI-N87 cells.

What is called Kd is the constant that tells how readily two partners part at equilibrium. A high value points to weaker binding.

Sequence of CD74 (invariant chain, Ii), human, on tumor cell lines (human) (P04233 whole entry, change not shown): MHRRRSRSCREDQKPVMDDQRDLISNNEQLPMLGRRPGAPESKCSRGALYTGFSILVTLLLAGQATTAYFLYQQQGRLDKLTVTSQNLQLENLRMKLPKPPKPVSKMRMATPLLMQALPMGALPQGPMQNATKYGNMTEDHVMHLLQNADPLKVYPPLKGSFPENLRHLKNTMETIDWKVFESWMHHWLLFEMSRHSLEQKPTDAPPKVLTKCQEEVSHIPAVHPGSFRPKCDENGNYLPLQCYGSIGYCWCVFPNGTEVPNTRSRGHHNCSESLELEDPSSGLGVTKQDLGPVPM
Sequence of Human neonatal receptor (FcRn) (human) (P55899 24-297 limits assumed): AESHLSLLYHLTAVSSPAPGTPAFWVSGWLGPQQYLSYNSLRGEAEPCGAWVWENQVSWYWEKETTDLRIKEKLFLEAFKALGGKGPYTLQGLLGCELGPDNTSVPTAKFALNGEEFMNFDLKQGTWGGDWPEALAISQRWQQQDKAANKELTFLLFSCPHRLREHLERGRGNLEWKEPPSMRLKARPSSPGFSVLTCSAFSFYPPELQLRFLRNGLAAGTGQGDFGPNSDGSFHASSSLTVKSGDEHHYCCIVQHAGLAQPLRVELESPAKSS

Regarding “IMMU-132 (hRS7-CL2A-SN-38 antibody-drug conjugate)”, the Kd was 92.4 nM in assay [1] and 0.658 nM in [2].

Regarding “Milatuzumab (hLL1, humanized anti-CD74 IgG1 monoclonal antibody, unconjugated)”, the MFI in [3] turned out to be 59 MFI; in assay [4], 16 MFI; in assay [5], 8 MFI; in assay [6] it was 9 MFI; in assay [7], 17 MFI; in assay [8], 22 MFI. Besides, the MFI was determined as 5 MFI in assay [9]; 143 MFI in assay [11]; 185 MFI in [12]; 114 MFI in assay [13]; 156 MFI in [14]; 144 MFI in [15]. Besides, the MFI in [16] stood at 248 MFI; in [17] it was 220 MFI. Further, the MFI Ratio hLL1:bkgd in assay [3] was found to be 19.6; in assay [4], 5.3; in [5], 1.6; in assay [6], 1.5; in [7], 2.1; in assay [8], 1.8. Further, the MFI Ratio hLL1:bkgd in assay [9] amounted to 1.3; in assay [11], 28.6; in assay [12], 30.8; in assay [13] it was 28.5; in [14], 31.2; in [15] it was 28.8. In addition, the MFI Ratio hLL1:bkgd in assay [16] came to 49.6; in assay [17], 36.7. For the same substance, the Kd in assay [10] was 0.77 nM.

For the substance “milatuzumab-CL2A-SN-38 conjugate (antibody)”, the Kd in [10] was found to be 0.59 nM.

Turning to “milatuzumab-CL2E-SN-38 conjugate (antibody)”, the Kd in assay [10] was determined as 0.8 nM.

These data come from patent US20180296689A1.
